The values that follow come from paper PMC5462769, “A highly conserved sequence of the viral TAP inhibitor ICP47 is required for freezing of the peptide transport cycle” (Scientific Reports, 2017).

Assay [1] deals with TAP (Homo sapiens) (UniProt Q03518). The conditions noted are these: cited from earlier work.
The target is the same in assay [2]. Conditions: cited from earlier work. This is another data set of the same source.
For assay [3], the target named is rT1/rT2 (rat TAP1 with a human C-terminus, with rat TAP2-FLAG) (rat | human) (UniProt P36370).
In assay [4] the target is rT1/hT2 (rat TAP1 with a human C-terminus, with human TAP2-FLAG) (rat | human) (UniProt P36370).
Assay [5] deals with T1, hT1/rT2 (human TAP1 with rat TAP2-FLAG) (human | rat, UniProt Q03518 1-748; P36372 1-703).
T1 sequence 1: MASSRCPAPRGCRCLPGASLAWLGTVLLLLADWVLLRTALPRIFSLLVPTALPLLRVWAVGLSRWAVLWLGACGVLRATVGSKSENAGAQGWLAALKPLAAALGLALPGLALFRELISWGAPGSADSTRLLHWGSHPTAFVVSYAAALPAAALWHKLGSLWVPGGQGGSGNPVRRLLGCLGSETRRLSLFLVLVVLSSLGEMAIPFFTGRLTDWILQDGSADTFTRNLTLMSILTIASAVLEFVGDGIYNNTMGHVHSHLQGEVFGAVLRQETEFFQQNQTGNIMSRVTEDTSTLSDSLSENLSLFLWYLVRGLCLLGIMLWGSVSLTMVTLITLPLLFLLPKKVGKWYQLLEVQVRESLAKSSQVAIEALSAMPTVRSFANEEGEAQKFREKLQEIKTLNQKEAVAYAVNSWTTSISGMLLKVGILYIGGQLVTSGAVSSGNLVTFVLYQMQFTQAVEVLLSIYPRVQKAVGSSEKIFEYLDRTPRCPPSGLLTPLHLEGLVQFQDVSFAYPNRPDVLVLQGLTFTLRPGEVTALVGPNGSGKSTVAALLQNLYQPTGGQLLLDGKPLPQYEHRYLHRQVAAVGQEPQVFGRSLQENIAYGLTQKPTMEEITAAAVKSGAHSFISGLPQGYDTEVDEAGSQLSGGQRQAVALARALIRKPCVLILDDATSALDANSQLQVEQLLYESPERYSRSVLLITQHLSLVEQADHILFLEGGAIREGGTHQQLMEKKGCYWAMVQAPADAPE
T1 sequence 2: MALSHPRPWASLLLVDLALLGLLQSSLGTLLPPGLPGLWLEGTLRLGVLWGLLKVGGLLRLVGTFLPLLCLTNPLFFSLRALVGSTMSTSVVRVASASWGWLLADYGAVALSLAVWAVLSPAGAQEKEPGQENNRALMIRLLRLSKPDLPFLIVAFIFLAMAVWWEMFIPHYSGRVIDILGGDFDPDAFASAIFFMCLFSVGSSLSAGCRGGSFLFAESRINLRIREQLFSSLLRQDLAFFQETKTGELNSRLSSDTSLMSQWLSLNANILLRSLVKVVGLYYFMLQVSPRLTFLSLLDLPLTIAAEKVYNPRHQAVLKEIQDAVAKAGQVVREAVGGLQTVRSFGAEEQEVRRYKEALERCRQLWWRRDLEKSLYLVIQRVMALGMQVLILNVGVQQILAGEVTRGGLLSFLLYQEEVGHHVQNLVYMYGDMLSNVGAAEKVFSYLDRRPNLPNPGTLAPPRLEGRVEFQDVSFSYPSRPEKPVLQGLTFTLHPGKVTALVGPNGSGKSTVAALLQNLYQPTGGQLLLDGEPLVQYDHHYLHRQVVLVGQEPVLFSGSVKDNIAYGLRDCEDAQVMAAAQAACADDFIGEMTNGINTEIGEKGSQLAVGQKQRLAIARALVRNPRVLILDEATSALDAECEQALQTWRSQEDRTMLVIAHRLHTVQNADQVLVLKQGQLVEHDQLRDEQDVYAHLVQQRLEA
Put plainly: cell-based or functional assay.

Assay [6] concerns the target T2, hT1/hT2 (human TAP1 with human TAP2-FLAG) (human, UniProt Q03518 1-748; Q03519 1-686).
T2 sequence 1: T1 sequence 1
T2 sequence 2: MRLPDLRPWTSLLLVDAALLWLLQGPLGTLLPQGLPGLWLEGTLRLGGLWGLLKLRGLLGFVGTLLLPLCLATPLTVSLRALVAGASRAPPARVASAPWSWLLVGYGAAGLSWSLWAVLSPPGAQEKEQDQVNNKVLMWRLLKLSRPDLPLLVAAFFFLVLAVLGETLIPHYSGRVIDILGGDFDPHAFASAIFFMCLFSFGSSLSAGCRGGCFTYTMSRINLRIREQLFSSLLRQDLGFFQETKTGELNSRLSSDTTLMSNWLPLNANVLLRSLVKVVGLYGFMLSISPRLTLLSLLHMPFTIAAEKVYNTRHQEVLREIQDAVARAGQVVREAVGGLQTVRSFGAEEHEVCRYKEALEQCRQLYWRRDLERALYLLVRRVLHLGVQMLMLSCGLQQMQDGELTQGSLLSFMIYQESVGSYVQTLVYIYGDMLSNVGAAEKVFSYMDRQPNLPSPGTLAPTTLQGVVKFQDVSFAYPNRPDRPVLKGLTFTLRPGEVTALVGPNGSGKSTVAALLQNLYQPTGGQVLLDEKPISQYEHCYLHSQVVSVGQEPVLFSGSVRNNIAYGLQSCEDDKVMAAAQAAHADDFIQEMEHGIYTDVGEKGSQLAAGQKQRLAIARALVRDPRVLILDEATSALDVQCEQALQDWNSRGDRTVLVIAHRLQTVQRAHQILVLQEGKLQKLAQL
Put plainly: cell-based or functional assay.

Broadly, the Kd is the constant that tells how readily two partners part at equilibrium.

Substitutions are numbered along the chain they refer to. Where two headings read alike, the source gives them in different places.

For ICP47 1-48 (from UniProt P03170), the Kd in assay [1] is 126 nM.

As to ICP47 1-53 (from UniProt P03170), the Kd in assay [2] was 50 nM.

B1: ICP47-HA (wild-type ICP47 with a C-terminal HA-tag), in CMT64.5 cells (natural protein)
chain: MSWALEMADTFLDTMRVGPRTYADVRDEINKRGREDREAARTAVHDPERPLLRSPGLLPEIAPNASLGVAHRRTGGTVTDSPRNPVTR
As for B1, the MHC class I surface expression (mAb 20-8-4) on CMT64.5 cells, ICP47-positive relative to ICP47-negative cells in assay [3] is 101 % expression; in assay [4], 47 % expression; in assay [5] it was 88 % expression; in assay [6], 17 % expression.

B2: ICP47m-HA (ICP47 with Pro50Leu51Leu52 mutated to AlaAlaAla, C-terminal HA-tag), in CMT64.5 cells (natural protein, herpes simplex virus type-1 (HSV-1), UniProt P03170 1-88, looked up)
chain: B1 chain with P50A, L51A, L52A
Regarding B2, the “MHC class I surface expression (mAb 20-8-4) on CMT64.5 cells, ICP47-positive relative to ICP47-negative cells” value in assay [6] turned out to be 26 % expression.
